Target: histone H3 peptide H3K4me3-K9me2 1-24 (Homo sapiens, UniProt P68431, H3K4me3+H3K9me2)
Test: ITC

Kd [nM]	Binder
~1000	PHF8 1-447 (protein) MNRSRAIVQRGRVLPPPAPLDTTNLAGRRTLQGRAKMASVPVYCLCRLPYDVTRFMIECDMCQDWFHGSCVGVEEEKAADIDLYHCPNCEVLHGPSIMKKRRGSSKGHDTHKGKPVKTGSPTFVRELRSRTFDSSDEVILKPTGNQLTVEFLEENSFSVPILVLKKDGLGMTLPSPSFTVRDVEHYVGSDKEIDVIDVTRQADCKMKLGDFVKYYYSGKREKVLNVISLEFSDTRLSNLVETPKIVRKLSWVENLWPEECVFERPNVQKYCLMSVRDSYTDFHIDFGGTSVWYHVLKGEKIFYLIRPTNANLTLFECWSSSSNQNEMFFGDQVDKCYKCSVKQGQTLFIPTGWIHAVLTPVDCLAFGGNFLHSLNIEMQLKAYEIEKRLSTADLFRFPNFETICWYVGKHILDIFRGLRENRRHPASYLVHGGKALNLAFRAWTRKE
~300	KIAA1718 1-488 (protein) MAGAAAAVAAGAAAGAAAAAVSVAAPGRASAPPPPPPVYCVCRQPYDVNRFMIECDICKDWFHGSCVGVEEHHAVDIDLYHCPNCAVLHGSSLMKKRRNWHRHDYTEIDDGSKPVQAGTRTFIKELRSRVFPSADEIIIKMHGSQLTQRYLEKHGFDVPIMVPKLDDLGLRLPSPTFSVMDVERYVGGDKVIDVIDVARQADSKMTLHNYVKYFMNPNRPKVLNVISLEFSDTKMSELVEVPDIAKKLSWVENYWPDDSVFPKPFVQKYCLMGVQDSYTDFHIDFGGTSVWYHVLWGEKIFYLIKPTDENLARYESWSSSVTQSEVFFGDKVDKCYKCVVKQGHTLFVPTGWIHAVLTSQDCMAFGGNFLHNLNIGMQLRCYEMEKRLKTPDLFKFPFFEAICWFVAKNLLETLKELREDGFQPQTYLVQGVKALHTALKLWMKKELVSEHAFEIPDNVRPGHLIKELSKVIRAIEEENGKPVKSQGI
